Square brackets hold non-standard residues; d marks the D form. Ends that are not written are not given here.

The record followed here is patent US20220213165A1 (University of Texas, published 2022).

The target in assay [1] is T1, recombinant human EphB4 (rhEphB4) (human, UniProt P54760 16-539, limits assumed).
T1 construct: Bought protein; also called purified EphB4; immobilized EphB4
T1 sequence (looked up): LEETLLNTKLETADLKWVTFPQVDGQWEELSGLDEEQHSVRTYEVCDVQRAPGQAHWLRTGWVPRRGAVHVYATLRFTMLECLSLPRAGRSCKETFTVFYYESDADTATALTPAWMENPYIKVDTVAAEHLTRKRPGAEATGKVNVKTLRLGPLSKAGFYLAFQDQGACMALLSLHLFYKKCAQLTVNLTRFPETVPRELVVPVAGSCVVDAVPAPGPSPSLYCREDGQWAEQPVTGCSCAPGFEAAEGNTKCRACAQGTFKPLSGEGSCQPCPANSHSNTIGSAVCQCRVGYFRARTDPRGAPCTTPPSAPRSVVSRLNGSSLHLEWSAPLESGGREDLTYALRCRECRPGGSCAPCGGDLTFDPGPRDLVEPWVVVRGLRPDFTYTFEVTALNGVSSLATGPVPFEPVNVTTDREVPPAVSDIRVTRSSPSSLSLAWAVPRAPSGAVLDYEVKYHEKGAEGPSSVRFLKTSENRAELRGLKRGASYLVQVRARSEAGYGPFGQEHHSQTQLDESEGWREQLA
Put plainly: SPR (BIACore), peptide 1.6-800 nM injected over immobilized rhEphB4. As for the experimental part:
Peptides in concentrations of 1.6 nM to 800 nM were injected over the rhEphB4 sensor chips, and the magnitude of peptide binding to immobilized EphB4 in response units (RU) was recorded.
(§1) Surface plasmon resonance (SPR) binding and competition assays. A stock solution of EphB4 in PBS (100 μg/mL) was diluted to 25 μg/mL with 10 mM sodium acetate buffer (pH 4.5) and immobilized to CM5 sensor chips using the amine coupling reaction according to manufacturer-provided procedures (BIACore). Briefly, the surfaces of the chips in flow cells (FC)-1 and FC-2 were activated by exposing chips to a mixture of 200 mM N-ethyl-N′-dimethylaminopropyl carbodiimide and 50 mM N-hydroxysuccinimide for 7 min. FC-1 was used as a reference surface and was directly deactivated by injecting 1 M ethanolamine at pH 8.5 for 7 min. FC-2 was injected with 25 μg/mL human or murine EphB4 followed by injection of 1 M ethanolamine to block the remaining activated ester groups on the surface. The chips were allowed to stabilize for at least 2 h in HBSEP running buffer before injection of test analytes.
For orientation: In SPR one partner is held on a chip, and binding of the other changes the refractive index at the surface.

Assay [2] has as its target T1, recombinant human EphB4 (rhEphB4). Put plainly: SPR, peptide over immobilized EphB4.
Assay [3] shares this target. Description: SPR (BIACore), peptide 1.6-800 nM injected over immobilized rhEphB4. As for the experimental part: FIG. 10: BIACore sensorgrams of binding of truncated peptides to immobilized rhEphB4. Retention of a peptide on a sensor chip was indicated by a change in response units (RU) over the course of the 180-s injection interval followed by a 210-s washing interval. Peptides in concentrations of 1.6 nM to 800 nM were injected over the rhEphB4 sensor chip, and the magnitude of peptide binding to immobilized EphB4 was recorded.
as §1
The source holds these as a separate data set.

The target is the same in assay [4]. Description: SPR, peptide over immobilized EphB4, 1:1 mass transfer interaction model. As for the experimental part:
as §1

Assay [5] deals with T2, EphB4 on the surface of A2780cp20 cells (human, UniProt P54760 16-987).
T2 construct: whole, on cells; also called EphB4 in human HeyA8 ovarian cancer cells; EphB4 in human ovarian cancer cells A2780cp20
T2 sequence (looked up): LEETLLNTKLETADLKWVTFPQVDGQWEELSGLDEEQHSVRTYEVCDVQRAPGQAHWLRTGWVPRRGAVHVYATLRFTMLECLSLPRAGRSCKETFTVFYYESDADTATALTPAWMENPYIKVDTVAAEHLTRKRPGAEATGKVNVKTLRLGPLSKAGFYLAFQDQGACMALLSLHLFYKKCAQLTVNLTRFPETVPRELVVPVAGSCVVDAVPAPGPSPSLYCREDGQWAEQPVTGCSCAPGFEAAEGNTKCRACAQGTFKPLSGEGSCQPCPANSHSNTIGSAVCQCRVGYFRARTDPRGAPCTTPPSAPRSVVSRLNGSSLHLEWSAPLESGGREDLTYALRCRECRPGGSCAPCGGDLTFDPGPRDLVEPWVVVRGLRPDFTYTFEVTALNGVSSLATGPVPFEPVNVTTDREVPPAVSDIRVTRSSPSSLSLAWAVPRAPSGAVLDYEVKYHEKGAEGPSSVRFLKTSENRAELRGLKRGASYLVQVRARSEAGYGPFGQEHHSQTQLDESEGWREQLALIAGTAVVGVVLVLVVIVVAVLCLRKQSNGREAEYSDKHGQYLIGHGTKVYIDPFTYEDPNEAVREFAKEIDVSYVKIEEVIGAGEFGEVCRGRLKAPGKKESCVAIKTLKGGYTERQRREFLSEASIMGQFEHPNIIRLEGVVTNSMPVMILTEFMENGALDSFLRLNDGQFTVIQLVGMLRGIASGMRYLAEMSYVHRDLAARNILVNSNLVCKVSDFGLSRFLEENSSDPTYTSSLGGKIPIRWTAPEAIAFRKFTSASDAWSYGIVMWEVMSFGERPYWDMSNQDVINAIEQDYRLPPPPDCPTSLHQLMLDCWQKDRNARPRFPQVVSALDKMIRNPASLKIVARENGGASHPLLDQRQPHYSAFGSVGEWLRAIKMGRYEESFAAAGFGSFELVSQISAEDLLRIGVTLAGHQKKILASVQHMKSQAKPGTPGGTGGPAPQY
Description: flow cytometry competition: A2780cp20 cells with EFNB2-Fc (20 nM) and BIDEN-AP (0-100 µM), PE-labeled anti-Fc detection. As for the experimental part:
D-Tyr-P3 is highlighted in red. […] Vertical axes, in response units (RU), represent binding of the peptide to immobilized EphB4. […] Individual duplicates were performed in each condition. Data are presented as mean±SD.
Cell-based binding assay. […] Cells were analyzed in a Cellquest fluorocytometer (BD Bioscience, San Jose, Calif.). The experiments were run in duplicate.
On the technique in general: Flow cytometry measures light scatter and fluorescence of single cells or particles in a stream.

For assay [6], the target named is T1, recombinant human EphB4 (rhEphB4). Put plainly: SPR competition: BIDEN-AP (2-1000 nM) mixed with human EphB4 (30 nM), injected on EFNB2-Fc-coated CM5 chip.

B1: TNYLFSPNGPIAR(dA)W (peptide)
peptide: TNYLFSPNGPIAR[dA]W
notes: also called TNYL-RAW with D-Ala at P14
As a reminder, the Kd is a measure of binding affinity in units of concentration. For the molecule B1, the Kd in assay [1] is 43 nM.

B2: B4-001, Cyclo(KTNYLFSPNGPIARAWD) (peptide)
peptide: KTNYLFSPNGPIARAWD
modifications: not fully specified (bridges); printed as Cyclo(KTNYLFSPNGPIARAWD); also: cyclic, ring-closing atoms not given here
With B2, the Kd in assay [2] amounted to 4.4 nM.

B3: NYLFSPNGPIARAW (peptide)
peptide: NYLFSPNGPIARAW
notes: also called TNYL-RAW truncated of N-terminus Thr-P1
Take B3: in assay [3], the Kd is 4.2 nM.

B4: T(dN)YLFSPNGPIARAW (peptide)
peptide: T[dN]YLFSPNGPIARAW
notes: also called TNYL-RAW with D-Asn at P2
As to B4, the Kd in assay [1] was 5 nM.

B5: TNYLFSPNGPIAR (peptide)
peptide: TNYLFSPNGPIAR
notes: also called TNYL-RAW truncated of C-terminus Ala-Trp (P14-P15)
As for B5, in assay [3], the Kd is 192 nM.

B6: B4-006, TNYLF(dS)PNGPIARAW (peptide)
peptide: TNYLF[dS]PNGPIARAW
Regarding B6, the Kd in assay [1] turned out to be 7700 nM.

B7: TNYLFSPNGPIARA(dW) (peptide)
peptide: TNYLFSPNGPIARA[dW]
notes: also called TNYL-RAW with D-Trp at P15
B7: the Kd in assay [1] is 8 nM.

B8: TNYL-RAW (peptide)
peptide: TNYLFSPNGPIARAW
notes: also called EphB4 antagonist TNYL-RAW peptide
Turning to B8, the Kd in assay [2] was found to be 3.1 nM.

B9: B4-002, TNYLFSPNGPIA(dR)AW (peptide)
peptide: TNYLFSPNGPIARAW
modifications: D-Arg at position 13
As to B9, the Kd in assay [2] amounted to 39 nM.

B10: B4-008, TNYLFSPNGPIARA (peptide)
peptide: TNYLFSPNGPIARA
notes: also called TNYL-RAW truncated of C-terminus Trp-P15
Turning to B10, the Kd in assay [3] came to 60 nM; in assay [2], 13 nM.

B11: B4-005, TNYL(dF)SPNGPIARAW (peptide)
peptide: TNYL[dF]SPNGPIARAW
As to B11, the Kd in assay [2] came out at 75 nM; in assay [1], 841 nM.

B12: YLFSPNGPIARAW (peptide)
peptide: YLFSPNGPIARAW
notes: also called TNYL-RAW truncated of N-terminus Thr-Asn (P1-P2)
As to B12, the Kd in assay [3] amounted to 5.2 nM.

B13: B4-004, TNY(dL)FSPNGPIARAW (peptide)
peptide: TNY[dL]FSPNGPIARAW
B13: the Kd in assay [2] is 65 nM.

B14: BIDEN-AP (bi-directional ephrin agonist peptide), TN(dY)LFSPNGPIARAW (peptide)
peptide: TN[dY]LFSPNGPIARAW
notes: Synthetic 15-mer made by solid phase synthesis on Rink resin; also called EphB4 agonist peptide
By IC50 is commonly meant the midpoint of a concentration-inhibition curve. B14: the Kd in assay [4] was 7 nM. The values for the IC50 in assay [5] and in assay [6] were ~1000 nM and 4 nM, respectively.
